Results as given in PMC5501727, “The Structure of the R2TP Complex Defines a Platform for Recruiting Diverse Client Proteins to the HSP90 Molecular Chaperone System” (Structure(London, England:1993), 2017).

What was measured:
[1] = biological target: T1, Tah1p-Pih1p complex (yeast, UniProt P25638 1-111; P38768 1-344); assay: AUC; sedimentation velocity, 43,000 rpm, samples 2 to 4 μM in 20 mM HEPES pH 7.8, 140 mM NaCl, 5 mM MgCl2, 0.5 mM EDTA, 0.5 mM TCEP; TP alone, R2 alone, and R2 mixed with TP at 1:2.4 molar ratio; details: both partners purified
T1 construct: Tah1p, TPR domain protein of yeast R2TP; gene cloned into a modified pET28b (NdeI/BamHI) giving 2xStrep-tagged Tah1p; Pih1p of yeast R2TP; PIH1P gene cloned into p3E (modified pGEX6p) with NdeI and HindIII; Heterodimer of 53 kDa by sedimentation velocity; also called TP; 2xStrep-Tah1p-Pih1p
T1 sequence (looked up) 1: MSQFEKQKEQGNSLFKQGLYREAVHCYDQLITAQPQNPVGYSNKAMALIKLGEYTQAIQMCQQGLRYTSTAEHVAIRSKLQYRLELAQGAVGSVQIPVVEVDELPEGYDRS
T1 sequence (looked up) 2: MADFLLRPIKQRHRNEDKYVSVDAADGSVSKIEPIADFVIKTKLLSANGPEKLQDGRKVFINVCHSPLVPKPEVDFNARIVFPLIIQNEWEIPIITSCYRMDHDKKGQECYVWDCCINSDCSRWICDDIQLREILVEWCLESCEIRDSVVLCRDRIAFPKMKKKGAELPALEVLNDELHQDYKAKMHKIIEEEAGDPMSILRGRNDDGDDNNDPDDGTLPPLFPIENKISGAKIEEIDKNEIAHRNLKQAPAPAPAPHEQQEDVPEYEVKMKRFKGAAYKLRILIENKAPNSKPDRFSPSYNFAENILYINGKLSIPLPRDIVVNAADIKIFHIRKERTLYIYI

[2] = biological target: T2, Rvb2p (Saccharomyces cerevisiae, UniProt Q12464 1-471); assay: as above; details: both partners purified
T2 construct: gene (Genscript) cloned into a modified pRSETA (containing 3X Myc-tags) with NheI and HindIII; also called Rvb2p-only complex; source: Rosetta (DE3) pLysS, co-expressed with Rvb1p, purified (Talon, gel filtration)

B1: Rvb1p-Rvb2p complex (hetero-hexamer) (complex, Saccharomyces cerevisiae)
chain 1: MVAISEVKENPGVNSSNSGAVTRTAAHTHIKGLGLDESGVAKRVEGGFVGQIEAREACGVIVDLIKAKKMSGRAILLAGGPSTGKTALALAISQELGPKVPFCPLVGSELYSVEVKKTETLMENFRRAIGLRIKETKEVYEGEVTELTPEDAENPLGGYGKTISHVIVGLKSAKGTKTLRLDPTIYESIQREKVSIGDVIYIEANTGAVKRVGRSDAYATEFDLETEEYVPLPKGEVHKKKEIVQDVTLHDLDVANARPQGGQDVISMMGQLLKPKKTEITEKLRQEVNKVVAKYIDQGVAELIPGVLFIDEVNMLDIEIFTYLNKALESNIAPVVVLASNRGMTTVRGTEDVISPHGVPPDLIDRLLIVRTLPYDKDEIRTIIERRATVERLQVESSALDLLATMGTETSLRYALQLLAPCGILAQTSNRKEIVVNDVNEAKLLFLDAKRSTKILETSANYL
chain 2: MSIQTSDPNETSDLKSLSLIAAHSHITGLGLDENLQPRPTSEGMVGQLQARRAAGVILKMVQNGTIAGRAVLVAGPPSTGKTALAMGVSQSLGKDVPFTAIAGSEIFSLELSKTEALTQAFRKSIGIKIKEETELIEGEVVEIQIDRSITGGHKQGKLTIKTTDMETIYELGNKMIDGLTKEKVLAGDVISIDKASGKITKLGRSFARSRDYDAMGADTRFVQCPEGELQKRKTVVHTVSLHEIDVINSRTQGFLALFTGDTGEIRSEVRDQINTKVAEWKEEGKAEIVPGVLFIDEVHMLDIECFSFINRALEDEFAPIVMMATNRGVSKTRGTNYKSPHGLPLDLLDRSIIITTKSYNEQEIKTILSIRAQEEEVELSSDALDLLTKTGVETSLRYSSNLISVAQQIAMKRKNNTVEVEDVKRAYLLFLDSARSVKYVQENESQYIDDQGNVQISIAKSADPDAMDTTE
notes: Rvb1p, AAA+ ATPase of yeast R2TP; gene (Genscript) cloned into pET28b with NdeI and BamHI; gene (Genscript) cloned into a modified pRSETA (containing 3X Myc-tags) with NheI and HindIII; also called R2; Rvb1p-Rvb2p hexamer; copies: 3 + 3
stoichiometry N [1]: 1 Rvb1p-Rvb2p hetero-hexamer per Tah1p-Pih1p complex

B2: Rvb1p (natural protein, Saccharomyces cerevisiae, UniProt Q03940 1-463, looked up)
chain: B1 chain 1
notes: Rvb1p, AAA+ ATPase of yeast R2TP; gene (Genscript) cloned into pET28b with NdeI and BamHI; also called Rvb1p-only complex
stoichiometry N [2]: 1 Rvb1p per Rvb2p (3:3)
